Experimental data taken from PMC12581835, “A kinetic ruler controls mRNA poly(A) tail length”.
Each block holds one molecule with its values, some of them ahead of it.

Columns and labels:
[1] = molecular target: Nab2-FRB (S. cerevisiae | not stated)
SII-Nab2 [2] = molecular target: T1, SII-Nab2 (Saccharomyces cerevisiae, UniProt P32505 1-525); assay: switchSENSE; kon 2.05e6 +/- 0.14e6 M-1 s-1; Kd only in Fig 2E table; switchSENSE: 12.5 mM HEPES-KOH pH 8.0, 75 mM KOAc, 1 mM Mg(OAc)2, 0.025 mM EDTA, 25 C; EMSA: polyadenylation buffer + 5% glycerol, 10 nM RNA, 30 C 1.5 h, native PAGE pH 6.4 at 4 C; settings: protein: recombinant; tags: N-terminal SII; label: red dye on NL-B48; chip-tethered; 68 bp dsDNA (nicked) with 3' RNA overhang 60 nt
T1 sequence: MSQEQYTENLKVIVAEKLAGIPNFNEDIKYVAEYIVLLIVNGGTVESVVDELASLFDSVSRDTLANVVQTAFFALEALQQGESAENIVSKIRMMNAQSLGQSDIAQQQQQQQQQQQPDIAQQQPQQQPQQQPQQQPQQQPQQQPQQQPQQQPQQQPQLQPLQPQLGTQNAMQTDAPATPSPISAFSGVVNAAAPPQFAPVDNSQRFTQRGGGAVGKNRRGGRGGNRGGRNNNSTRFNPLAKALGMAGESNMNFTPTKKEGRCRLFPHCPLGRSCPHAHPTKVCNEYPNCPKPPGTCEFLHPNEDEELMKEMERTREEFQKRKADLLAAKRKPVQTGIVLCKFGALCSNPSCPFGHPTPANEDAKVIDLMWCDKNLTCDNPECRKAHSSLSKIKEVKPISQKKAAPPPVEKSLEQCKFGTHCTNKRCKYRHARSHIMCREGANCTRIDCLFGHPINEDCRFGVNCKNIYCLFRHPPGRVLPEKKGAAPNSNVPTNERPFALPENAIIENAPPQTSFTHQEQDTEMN

SII-Nab2 [3] = molecular target: T1, SII-Nab2; assay: switchSENSE; kon 1.2e6 +/- 0.17e6 M-1 s-1; Kd only in Fig 2E table; switchSENSE: 12.5 mM HEPES-KOH pH 8.0, 75 mM KOAc, 1 mM Mg(OAc)2, 0.025 mM EDTA, 25 C; EMSA: polyadenylation buffer + 5% glycerol, 10 nM RNA, 30 C 1.5 h, native PAGE pH 6.4 at 4 C; settings: protein: recombinant; tags: N-terminal SII; label: red dye on NL-B48; chip-tethered; 68 bp dsDNA (nicked) with 3' RNA overhang 30 nt
Nab2-6xHis [4] = molecular target: T2, Nab2-6xHis (Saccharomyces cerevisiae, UniProt P32505 1-525); assay: EMSA; Hill coefficient 2.7; multiple shifted bands; switchSENSE: 12.5 mM HEPES-KOH pH 8.0, 75 mM KOAc, 1 mM Mg(OAc)2, 0.025 mM EDTA, 25 C; EMSA: polyadenylation buffer + 5% glycerol, 10 nM RNA, 30 C 1.5 h, native PAGE pH 6.4 at 4 C; settings: protein: recombinant; tags: C-terminal 6xHis; label: Atto680; single strand
T2 sequence: T1 sequence

Nab2-6xHis [5] = molecular target: T2, Nab2-6xHis; assay: SEC-MALS; bimodal peak; one Nab2 with 1-3 A30; dimer less stable; switchSENSE: 12.5 mM HEPES-KOH pH 8.0, 75 mM KOAc, 1 mM Mg(OAc)2, 0.025 mM EDTA, 25 C; EMSA: polyadenylation buffer + 5% glycerol, 10 nM RNA, 30 C 1.5 h, native PAGE pH 6.4 at 4 C; settings: protein: recombinant; tags: C-terminal 6xHis; single strand

- modal poly(A) tail length of the substrate RNA that escaped early inhibition, 1 µM Nab2 with rapamycin (∼42 As in a reaction without rapamycin) [1]: 36 As
Molecule: Nab2-FKBP12

B1: rA60 nanolever (mixed)
DNA 1: ATTGTGCTCGTCAGTAGTGTAAAAAAAAAAAAAAAAAAAAAAAAAAAAAAAAAAAAAAAAAAAAAAAAAAAAAAAAAAAA
DNA 2: ACACTACTGACGAGCACAATATCAGCGTTCGATGCTTCCGACTAATCAGCCATATCAGCTTACGACTA
DNA 3: TAGTCGTAAGCTGATATGGCTGATTAGTCGGAAGCATCGAACGCTGAT
modifications: 3' 60 nt RNA on DNA handle
- binding signal (SII-Nab2 [2]): ~5 fold higher affinity than rA30

B2: rA30 nanolever (mixed)
DNA 1: ATTGTGCTCGTCAGTAGTGTAAAAAAAAAAAAAAAAAAAAAAAAAAAAAA
DNA 2: B1 DNA 2
DNA 3: B1 DNA 3
modifications: 3' 30 nt RNA on DNA handle
- binding signal (SII-Nab2 [3]): ~0.2 affinity relative to rA60

B3: Atto680-A59 (R003) (ssRNA)
RNA: AAAAAAAAAAAAAAAAAAAAAAAAAAAAAAAAAAAAAAAAAAAAAAAAAAAAAAAAAAA
- binding result (Nab2-6xHis [4]): binds

B4: A30 (R002) (ssRNA)
RNA: AAAAAAAAAAAAAAAAAAAAAAAAAAAAAA
modifications: phosphate
- binding result (Nab2-6xHis [5]): binds
